Source: publication PMC3992933 (Peptides, 2014)
No end group written: not given here.

How the values were obtained:
[1] = molecular target: human serum albumin (HSA) (Homo sapiens, UniProt P02768); assay: SPR spectroscopy, HBD binding to immobilized human serum albumin; conditions: in terms of absolute response and kinetic shape of binding
[2] = tested on: immobilized adhesins from the periodontal pathogen Porphyromonas gingivalis; conditions: ref [2], [5], [18]; cited from earlier work
[3] = tested on: immobilized P. gingivalis hemagglutinin B (HagB); conditions: ref [2]; cited from earlier work
[4] = molecular target: Bla g2 from the German cockroach (Blattella germanica) (Blattella germanica); assay: SPR

With “HBD1: human β-defensin used as a control β-defensin; purchased from PeproTech, Inc. (DHYNCVSSGGQCLYSACPIFTKIQGTCYRGKAKCCK; ends and bridges not checked; cysteine pairing not given here)” the “binding to HSA compared with Bla g2 (in words)” value [1] was “bound to immobilized HSA similar to Bla g2”.

For histatin 5, the “binding to immobilized adhesins from P. gingivalis (in words)” value [2] is given as “specifically bind” and the “binding to immobilized HagB (in words)” value [3] is given as “bind specifically”.

In the case of GIINTLQKYYCRVRGGRCAVLSCLPKEEQIGKCSTRGRKCCRRKK (ends and bridges not checked; cysteine pairing not given here) [Human β-defensin 3], the Kd [4] is reported as 5.9 µM.
